Laboratory results as given in article PMC8573386 (Frontiers in Immunology, 2021).
Changes are numbered by the printed parent chain.

B1: 60C03 IgG (antibody)
VH: QVQLRESGPSLVKPSQTLSLTCTASGFSLSDKAVGWVRQAPGKALEWLGGIDTGGSTGYNPGLKSRLSITKDNSKSQVSLSVSSVTTEDSATYYCTTVHQETKKENSCPDGYTSGVECRFRGYTCANDGCWRVCSFTTCSGWMPASDTYRYEYHVDAWGQGLLVTVSS
VL: EAVLNQPSSVSGSLGQRVSITCSGSSSNVGNGYVSWYQLIPGSAPRTLIYGDTSRASGVPDRFSGSRSGNTATLTISSLQAEDEADYFCASAEDSSSNAVFGSGTTLTVL
notes: synthetic bovine IGHV1-7 (VHBUL) scaffold, FR1 to FR3; ultralong CDR-H3 (stalk and knob) of clone 60C03 from immunised cattle; FR4 of the synthetic VH domain; human IgG1 heavy chain constant regions; bovine VL (V30, VLλ30) deduced from PDB entries that share a CDR-identical light chain; human constant lambda region (CLλ); chimeric IgG1; all clones share one fixed light chain and VH scaffold and …
B2: 60F06 IgG (antibody)
VH: QVQLRESGPSLVKPSQTLSLTCTASGFSLSDKAVGWVRQAPGKALEWLGGIDTGGSTGYNPGLKSRLSITKDNSKSQVSLSVSSVTTEDSATYYCTTVHQRTEKIAKCPDGYSDARHCRDGCDCFGWDCFRSGAWAECYYEVYTYVHTYEHHVDAWGQGLLVTVSS
VL: B1 VL
notes: synthetic bovine IGHV1-7 (VHBUL) scaffold, FR1 to FR3; ultralong CDR-H3 (stalk and knob) of clone 60F06 from immunised cattle; FR4 of the synthetic VH domain; human IgG1 heavy chain constant regions; as the light chain of m3: bovine VL (V30, VLλ30) deduced from PDB entries that share a CDR-identical light chain; human constant lambda region (CLλ); chimeric IgG1; also called chimeric bovine × …
B3: 60H05 IgG (antibody)
VH: B1 VH with E101K, K103N, E105L, N106K
VL: B1 VL
notes: synthetic bovine IGHV1-7 (VHBUL) scaffold, FR1 to FR3; ultralong CDR-H3 (stalk and knob) of clone 60H05 from immunised cattle; FR4 of the synthetic VH domain; human IgG1 heavy chain constant regions; as the light chain of m3: bovine VL (V30, VLλ30) deduced from PDB entries that share a CDR-identical light chain; human constant lambda region (CLλ); chimeric IgG1; also called chimeric bovine × …
B4: 60E11 IgG (antibody)
VH: QVQLRESGPSLVKPSQTLSLTCTASGFSLSDKAVGWVRQAPGKALEWLGGIDTGGSTGYNPGLKSRLSITKDNSKSQVSLSVSSVTTEDSATYYCTTVHQRTRKTCPDGWRDGSDCPYGHRCGDYDCCGYGCYDGRGTNRFTGVVESYTYEWYVDAWGQGLLVTVSS
VL: B1 VL
notes: synthetic bovine IGHV1-7 (VHBUL) scaffold, FR1 to FR3; ultralong CDR-H3 (stalk and knob) of clone 60E11 from immunised cattle; FR4 of the synthetic VH domain; human IgG1 heavy chain constant regions; as the light chain of m3: bovine VL (V30, VLλ30) deduced from PDB entries that share a CDR-identical light chain; human constant lambda region (CLλ); chimeric IgG1; also called chimeric bovine × …
B5: 60C08 IgG (antibody)
VH: QVQLRESGPSLVKPSQTLSLTCTASGFSLSDKAVGWVRQAPGKALEWLGGIDTGGSTGYNPGLKSRLSITKDNSKSQVSLSVSSVTTEDSATYYCTTVHQKTIETTQKTCPDGYFYADTCWAYSCRCRDCDCCRSSGGCTYSRDSHTATYEWHVDAWGQGLLVTVSS
VL: B1 VL
notes: synthetic bovine IGHV1-7 (VHBUL) scaffold, FR1 to FR3; ultralong CDR-H3 (stalk and knob) of clone 60C08 from immunised cattle; FR4 of the synthetic VH domain; human IgG1 heavy chain constant regions; as the light chain of m3: bovine VL (V30, VLλ30) deduced from PDB entries that share a CDR-identical light chain; human constant lambda region (CLλ); chimeric IgG1; also called chimeric bovine × …
B6: 60D01 IgG (antibody)
VH: QVQLRESGPSLVKPSQTLSLTCTASGFSLSDKAVGWVRQAPGKALEWLGGIDTGGSTGYNPGLKSRLSITKDNSKSQVSLSVSSVTTEDSATYYCTTVHQETTKTASCPDGYAEHFGRGWGYWGCGGCDCCQENGAGGGWGNCGLYSTSYTYEHHIDAWGQGLLVTVSS
VL: B1 VL
notes: synthetic bovine IGHV1-7 (VHBUL) scaffold, FR1 to FR3; ultralong CDR-H3 (stalk and knob) of clone 60D01 from immunised cattle; FR4 of the synthetic VH domain; human IgG1 heavy chain constant regions; as the light chain of m3: bovine VL (V30, VLλ30) deduced from PDB entries that share a CDR-identical light chain; human constant lambda region (CLλ); chimeric IgG1; also called chimeric bovine × …

target: T1, EGFR on EGFR-overexpressing tumor cell line A431 (Homo sapiens, A431 cells, UniProt P00533); test: cell-based or functional assay; conditions: not given

Row | Binder | ADCC EC50 killing: NK cell-mediated lysis of EGFR-overexpressing A431 cells, E:T 5:1 | ADCC mean max killing of A431 cells (normalized to Cetuximab)
1 | B1 | 0.0265 nM | 103%
2 | B2 | 0.0048 nM | 108%
3 | B3 | 0.0164 nM | 105%
4 | B4 | 0.0033 nM | 96%
5 | B5 | 0.0587 nM | 92.1%
6 | B6 | 0.606 nM | 76.3%

target: T1, EGFR on EGFR-overexpressing tumor cell …; test: flow cytometry on cells; EGFR-positive A431 cells incubated 1 h on ice with antibody derivatives 0.05 nM to 1 µM, detected with Alexa Fluor 488 Fab goat antihuman IgG (H+L); apparent binding affinities; conditions: one partner purified

Row | Binder | EC50
7 | B1 | 3 nM
8 | B2 | 3 nM
9 | B3 | 2.6 nM
10 | B4 | 10.1 nM
11 | B5 | 0.9 nM
12 | B6 | 1.3 nM
